PMC5516325, “Sequence-based identification of inositol monophosphatase-like histidinol-phosphate phosphatases (HisN) in Corynebacterium glutamicum, Actinobacteria, and beyond” (BMC Microbiology, 2017)

How the values were obtained:
Type in all cases: biochemical, Corynebacterium glutamicum
[1] = test system: T1, Cg0911; assay: phosphate release from HolP, malachite green; activation; details: activator (also reaction product); 500 μM HolP, 5 mM MgSO4, 1 M triethanolamine, pH 7.35, 30 °C; read-out: Half maximal stimulation
T1 construct: tag-free (C-terminal intein tag self-cleaved, IMPACT system), expressed in E. coli ER2566

[2] = test system: T1, Cg0911; assay: phosphate release, malachite green; Hill equation fit; details: 5 mM MgSO4, 100 mM triethanolamine, pH 7.35, 30 °C
Text: phosphate release, malachite green; Hill equation fit on Cg0911

[3] = substrate: N[C@H](COP(=O)(O)O)Cc1c[nH]cn1; assay: as above; details: 5 mM MgSO4, 100 mM triethanolamine, pH 7.35, 30 °C
Text: phosphate release, malachite green; Hill equation fit on HisN (HisNCg)

Molecule: N[C@H](CO)Cc1c[nH]cn1 [L-histidinol]
- EC50 [1]: 860 ± 60 µM

Molecule: N[C@H](COP(=O)(O)O)Cc1c[nH]cn1 [L-histidinol-phosphate]
- Km [2]: 638 ± 70.5 µM

B1: HisN (HisNCg) (Corynebacterium glutamicum ATCC 13032) (protein)
chain: MSKYADDLALALELAELADSITLDRFEASDLEVSSKPDMTPVSDADLATEEALREKIATARPADSILGEEFGGDVEFSGRQWIIDPIDGTKNYVRGVPVWATLIALLDNGKPVAGVISAPALARRWWASEGAGAWRTFNGSSPRKLSVSQVSKLDDASLSFSSLSGWAERDLRDQFVSLTDTTWRLRGYGDFFSYCLVAEGAVDIAAEPEVSLWDLAPLSILVTEAGGKFTSLAGVDGPHGGDAVATNGILHDETLDRLK
notes: tag-free (C-terminal intein tag self-cleaved, IMPACT system, NEB), expressed in E. coli ER2566
- Km [3]: 23.6 ± 1.4 µM
- kcat [3]: 1.04 ± 0.06 s⁻¹
- kcat/Km [3]: 44100 M⁻¹ s⁻¹
